Results on 19 variants are retold here after the RNAGym collection of RNA variant scans (doi:10.1073/pnas.2313332121).

The labels stand for the following.
B1: TPR 5TU (parent)
chain: GGAUCUUCUCGAUCUAACAAAAAAGACAAAUCUGCCACAAAGCUUGAGAGCAUCUUCGGAUGCAGAGGCGGCAGCCUUCGGUGGCGCGAUAGCGCCAACGUUCUCAACUAUGACACGCAAAACGCGUGCUCCGUUGAAUGGAGUUUAUCAUG

Variants at the floor of the assay were thinned out.

In the data set the parent is B1. Put plainly: polymerase ribozyme fitness, log enrichment relative to wild type (log ratio); higher = more active; in vitro selection for triplet polymerase activity. In a few lines: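 Each subunit of a heterodimeric triplet polymerase ribozyme was mutagenized into a library by PCR, transcribed, and subjected to one round of in vitro selection, run in triplicate. Libraries were annealed with a biotinylated primer, the partner subunit and triplets, incubated frozen at −7 °C, and extended constructs were gel-excised, captured on streptavidin beads and recovered by RT-PCR. Input and output libraries were sequenced on Illumina, keeping genotypes with ≥10 input reads and ≥1 read per output. Fitness is log base 2 of genotype enrichment divided by wild-type enrichment, from inverse-variance-weighted replicate averages.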
Consider GGAUCUUCUCGAUCUAACAAAAAAGACAAAUCUGCCACAAAGCUUGAGAGCAUAUUCGGAUGCAGAGGCGGCAGCCUUCGGUGGCGCGAUAGCGCGCACGUUCUCAACUAUGACACGCAAAACGCGUGCUCCGUUGAAUGGACUUUAUCAUG [C54A C96G A97C G143C], for which the “polymerase ribozyme fitness (log ratio)” value was not above -4.2. The value for GGAUCUUCUCGAUCUAACAAAAAAGACAAAUCUGCCACAAAGCUUGAGAGCAUAUUCGGAUGCAGAGGCGGCAGCCUUCGGUGGCGCGAUUGCGCCAACGUUCUCAACCAUGACACGCAAAACGCGUGCUCCGUUGAAUUGAGUUCAUCAUG [C54A A91U U109C G140U U146C] was not above -4.2. GGAUCUUCUCGAUCUAACAAAAAAGACAAAUCUGCCACAAAGCUUGAGAGCAUAUUCGGAUGCAGAGGCGGCAGCCUUCGGUGGUGCGAUAGCGCCAACGUUCUUAACUAUGACACGCAAAACGCGUGCUCCGUUGAAUGGCGUUUAUCAUG [C54A C85U C105U A142C]: the “polymerase ribozyme fitness (log ratio)” value was -2.12. The same measure for GGAUCUUCUCGAUCUAACAAAAAAGACAAAUCUGCCACAAAGCUUGAGAGCAUAUUCGGAUGCAGAGGCGGCAGCCUUCGGUGGCGCGAUAGCGUCAACGUUCUCCACUAUGACACGCAAAACGCGUGCUCCGUUGAAUGGAGUUUAUCAUG [C54A C95U A106C]: -2.19. The same measure for GGAUCUUCUCGAUCUAACAAAAAAGACAAAUCUGCCACAAAGCUUGAGAGCAUAUUCGGAUGCAGAGGCGGCAGCCUUCGGUGGCGCGAUAGCGCUAACGUUCUCAACUAUGGCACGCAAAACGCGUGCUCCGUUGAAUGGAGUUUAUCAUG [C54A C96U A113G]: -3.11; for GGAUCUUCUCGAUCUAACAAAAAAGACAAAUCUGCCACAAAGCUUGAGAGCAUAUUCGGAUGCAGAGGCAGCAGCCUUCGGUGGCGCGAUAGCGCCAACGUUCUCAACUAUGACACGCAAAACGCGUGCUCCGUUGAAUGGAGUUUAUCAUG [C54A G70A]: -3.79. The value for GGAUCUUCUCGAUCUAACAAAAAAGACAAAUCUGCCACAAAGCUUGAGAGCAUAUUCGGAUGCAGAGGCGGCAGCCUUCGGUGGCGCGAUAGCGCCAACGUUCUCAACUAUGACCCGCAAAACGCGUGCUCCGUUGAAUGGAGUUUAUCAUG [C54A A115C] was -1.87; that for GGAUCUUCUCGAUCUAACAAAAAAGACAAAUCUGCCACAAAGCUUGAGAGCAUAUUCGGAUGCAGAGGCGGCAGCCUUCGGUGGCGCGAUAGCGCCAACGUUCUGAACUAUGACACGCAAAACGCGUGCCCCGUUGAAUGGAGUUUAUCAUG [C54A C105G U130C] was -2.7. Take GGAUCUUCUCGAUCUAACAAAAAAGACAAAUCUGCCACAAAGCUUGAGAGCAUAUUCGGAUGCAGAGGCGGCAGCCUUCGGUGGCGCGAUAGCGCCAACGUUCUCAACUAUGACACGCAAUACGCGUGCUCCGUUGAAUGCAGUUUAUCAUG [C54A A121U G141C]: the “polymerase ribozyme fitness (log ratio)” value is -1.65. The value for GGAUCUUCUCGAUCUAACAAAAAAGACAAAUCUGCCACAAAGCUUGAGAGCAUAUUUGGAUGCAGAGGCGGCAGCCUUCGGUGGCGCGAUAGCGUCAACGUUCUCAACUAUGACACGCAAAACGCGUGCUCCGUUGAAUGGAGUUUAUCAUG [C54A C57U C95U] was -1.9. The same measure for GGAUCUUCUCGAUCUAACAAAAAAGACAAAUCUGCCACAAAGCUUGAGAGCAUAUUCGGAUGCAGAGGCGGCAGCCUUCGGUGGUGCGAUAGCGCCAACGUUCUCAACUAUGACACGCAAAACGCGUGCUCCGUUGAAUGGAGUUUAUGAUU [C54A C85U C149G G152U]: -4.15; for GGAUCUUCUCGAUCUAACAAAAAAGACAAAUCUGCCACAAAGCUUGAGAGCAUAUUCGUCUGCAGAGGCGGCAGCCUUCGGUAGCGCGAUAGCGCCAACGUUCUCAACUAUGACAAGCAAAACGCGUGCUCCGUUGAAUGGAGUUUAUCAUG [C54A G59U A60C G83A C116A]: -2.11; for GGAUCUUCUCGAUCUAACAAAAAAGACAAAUCUGCCACAAAGCUUGAGAGCAUAUUGGGAUGCAGAGGCGGCAGCCUUCGGUGGCGUGAUAGCGCCAACGUUCUCAACUAUGACACGCAAAACGCGUGCUCCGUUGAAUGGAGUUUAUCGUG [C54A C57G C87U A150G]: -3.99. The same measure for GGAUCUUCUCGAUCUAACAAAAAAGACAAAUCUGCCACAAAGCUUGAGAGCAUAUUCGGAUGCAGAGGCGGCAGCCUUCGGUGGCGCGAUAGCGCCAACGUUCUCAACUAUGACAGGCAAAACGCGUGCUCCGUUGAAUGGAGUUUAUCAUG [C54A C116G]: -0.685; for GGAUCUUCUCGAUCUAACAAAAAAGACAAAUCUGCCACAAAGCUUGAGAGCAUAUUCGGAUGCAGAGGCGGCAGCCUUCGGUGGCGGGAUAGCGCCAGCGUUCUCAACUAUGACACGCAAAACGCGUGCUCCGUUGAAUGGAGUUUAUCAUG [C54A C87G A98G]: not above -4.2.

As to GGAUCUUCUCGAUCUAACAAAAAAGACAAAUCUGCCACAAAGCUUGAGAGCAUAUUCGAAUGCAGAGGCGGCAGCCUUCGGUGGCGUGAUAGCGCCAACGUUCUCAACUAUGACACGCAAAACGCGUGCUCCGUUGAAUGGAGUUUAUCAUG [C54A G59A C87U], the “polymerase ribozyme fitness (log ratio)” value was -1.95. The value for GGAUCUUCUCGAUCUAACAAAAAAGACAAAUCUGCCACAAAGCUUGAGAGCAUAUUCGGAUGCAGAGGCGGCAGUCUUCGGUGGCGCGAUAGUGCCAACGUUCUCAACUAUGACACGCAAAACGCGUGCUCCGUUGAAUGGAGUUUAUCAUG [C54A C75U C93U] was -2.29. The value for GGAUCUUCUCGAUCUAACAAAAAAGACAAAUCUGCCACAAAGCUUGAGAGCAUAUUCGGAUGCAGAGGCGGCAGCCUUCGGUGGCGCGAUAGCGCUAACGUUCUCAACUAUGACACGCAAAACGCGUGCUCCGUUGAAUGGAGUUUAUCAUG [C54A C96U] was -1.43; that for GGAUCUUCUCGAUCUAACAAAAAAGACAAAUCUGCCACAAAGCUUGAGAGCAUAUUCGGAUGCAGAGGCGGCAGCCUUCGGUGGCGCGAUAGCGUCAACGUUCUCAACUAUGACACGCAAAACGCGUGCUCCGUUGAAUGGAGUUUAUCAUG [C54A C95U] was -2.22.
